Biological target: T1, SarA (staphylococcal accessory regulator A), strain DB (Staphylococcus aureus, UniProt Q2G2U9 SEQ:1-124)
T1 sequence: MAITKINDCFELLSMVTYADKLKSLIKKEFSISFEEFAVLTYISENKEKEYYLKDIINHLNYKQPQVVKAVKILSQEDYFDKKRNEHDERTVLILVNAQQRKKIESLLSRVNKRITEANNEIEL
Assay: footprint
Conditions: tags: none (untagged full-length, expressed from pET9a in E. coli BL21(DE3)pLys); chain copies: 2 (dimer, stated); label: 32P

B1: agr P2-P3 inter-promoter region (cloned in pBKH50; DNase I footprint fragment about 240 bp with vector ends) (dsDNA)
DNA 1: CATTAAAACATGCTAAAAGCATTTATTTTCCAATTTTTCTTAACTAGTCGTTTTTTATTCTTAACTGTAAATTTTTTTATGTTAAAATATTAAATACAAATTACATTTAACAGTTAAGTATTTATTTCCTACAGTTAGGCAATATAATGATAAAAGATTGTACTAAATCGTATAATGACAGGATCCCCGG
DNA 2: CCGGGGATCCTGTCATTATACGATTTAGTACAATCTTTTATCATTATATTGCCTAACTGTAGGAAATAAATACTTAACTGTTAAATGTAATTTGTATTTAATATTTTAACATAAAAAAATTTACAGTTAAGAATAAAAAACGACTAGTTAAGAAAAATTGGAAAATAAATGCTTTTAGCATGTTTTAAGT
apparent K (half saturation): 4.24 pM

From patent US6699662, “Inhibitors of staphylococcus SarA protein function involved in the expression of staphylococcal virulence factors and the use thereof in treating staphylococcal infections” (University of Arkansas)
